Results published in PMC12310515.

Molecular target: RBK21 variable region (residues 148-299) (P. falciparum (field isolate Lek174))
Assay: SPR

Chain of KIR2DS1 (SPR protein) (Q14954 22-245): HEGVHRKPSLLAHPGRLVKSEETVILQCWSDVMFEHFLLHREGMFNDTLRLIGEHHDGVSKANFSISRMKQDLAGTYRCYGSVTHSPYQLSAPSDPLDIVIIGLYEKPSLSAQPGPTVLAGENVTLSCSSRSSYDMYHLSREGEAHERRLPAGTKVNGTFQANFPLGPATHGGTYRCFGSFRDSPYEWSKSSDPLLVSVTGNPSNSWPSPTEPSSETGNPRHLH
Chain of KIR2DL1 (residues 27-221) (P43626 27-221): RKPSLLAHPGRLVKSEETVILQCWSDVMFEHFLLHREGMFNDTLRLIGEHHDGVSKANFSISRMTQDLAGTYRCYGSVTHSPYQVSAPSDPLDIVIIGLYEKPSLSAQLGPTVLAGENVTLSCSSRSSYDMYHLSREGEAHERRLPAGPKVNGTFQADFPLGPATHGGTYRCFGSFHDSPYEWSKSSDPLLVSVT

| Substance | Kd [nM] |
| --- | --- |
| KIR2DS1 (SPR protein) (from UniProt Q14954) (receptor) | 1700 |
| KIR2DL1 (residues 27-221) (from UniProt P43626 27-221) (domain or fragment) | 500 |
